Article PMC7133447

Tests used:
[1] = molecular target: transferrin receptor (TfR) on bEnd.3 cells (mouse) (UniProt Q62351); assay: flow cytometry (bEnd.3 cells); details: Live-cell flow cytometry, 5e5 cells, 0-400 nM aptamer, PBS with 10% FCS, 0.1 mg/mL tRNA, 0.1 mg/mL BSA, 60 min, 37 C, aptamer folded in PBS with 5 mM MgCl2
[2] = molecular target: T1, epithelial cell adhesion molecule (EpCAM) on MDA-MB-231 cells (human) (UniProt P16422); assay: flow cytometry (MDA-MB-231 cells); details: Live-cell flow cytometry, 5e5 cells, 0-400 nM aptamer, PBS with 10% FCS, 0.1 mg/mL tRNA, 0.1 mg/mL BSA, 60 min, 37 C, aptamer folded in PBS with 5 mM MgCl2
T1 sequence: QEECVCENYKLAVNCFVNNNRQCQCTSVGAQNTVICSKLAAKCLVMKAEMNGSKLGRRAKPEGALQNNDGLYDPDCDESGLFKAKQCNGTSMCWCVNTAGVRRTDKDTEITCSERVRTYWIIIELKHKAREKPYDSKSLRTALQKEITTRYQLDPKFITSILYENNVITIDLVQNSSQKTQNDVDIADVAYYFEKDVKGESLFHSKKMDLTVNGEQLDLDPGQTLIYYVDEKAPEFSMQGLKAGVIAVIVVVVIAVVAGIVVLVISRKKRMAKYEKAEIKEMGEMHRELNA

[3] = molecular target: transferrin receptor (TfR) / EpCAM on 4T1 cells (mouse) (UniProt Q62351); assay: flow cytometry (4T1 cells); details: Live-cell flow cytometry, 5e5 cells, 0-400 nM aptamer, PBS with 10% FCS, 0.1 mg/mL tRNA, 0.1 mg/mL BSA, 60 min, 37 C; aptamer folded in PBS with 5 mM MgCl2
Chain of transferrin receptor (TfR) / EpCAM on 4T1 cells (mouse) (Q62351 whole entry): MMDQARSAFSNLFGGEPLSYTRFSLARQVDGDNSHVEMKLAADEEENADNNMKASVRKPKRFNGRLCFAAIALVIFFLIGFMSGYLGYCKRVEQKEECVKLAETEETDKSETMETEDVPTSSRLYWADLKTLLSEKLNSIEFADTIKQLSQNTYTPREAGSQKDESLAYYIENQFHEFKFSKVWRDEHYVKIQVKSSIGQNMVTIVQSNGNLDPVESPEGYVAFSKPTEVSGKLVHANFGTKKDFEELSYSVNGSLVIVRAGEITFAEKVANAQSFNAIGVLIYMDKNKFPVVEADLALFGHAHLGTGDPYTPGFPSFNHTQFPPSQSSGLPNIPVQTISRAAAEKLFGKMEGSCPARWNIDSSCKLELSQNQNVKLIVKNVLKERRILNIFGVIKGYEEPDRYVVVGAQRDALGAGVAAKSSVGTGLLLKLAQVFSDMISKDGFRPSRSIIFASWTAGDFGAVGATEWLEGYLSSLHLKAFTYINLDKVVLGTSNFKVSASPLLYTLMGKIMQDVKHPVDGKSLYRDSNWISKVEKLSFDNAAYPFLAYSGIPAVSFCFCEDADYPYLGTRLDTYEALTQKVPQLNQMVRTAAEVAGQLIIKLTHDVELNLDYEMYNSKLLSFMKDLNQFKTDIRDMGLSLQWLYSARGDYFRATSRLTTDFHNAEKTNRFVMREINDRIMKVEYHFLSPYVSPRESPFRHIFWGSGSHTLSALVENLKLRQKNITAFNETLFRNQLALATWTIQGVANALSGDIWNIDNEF

[4] = doxorubicin intercalated (non-covalent, about 2-3 per aptamer)

Chain of transferrin receptor (TfR) on bEnd.3 cells (mouse) (Q62351 whole entry): as above

| Sequence | Kd [1, 4] [nM] | Kd [2, 4] [nM] | Kd ([1]; cited from earlier work) [nM] | Kd ([2]; cited from earlier work) [nM] | Kd [3] [nM] |
| --- | --- | --- | --- | --- | --- |
| GCGCGGTACCGCGCTAACGGAGGTTGCGTCCGT [TEPP-DOX] | 119 | 536 | – | – | – |
| GCGCGGTACCGCGCTAACGGAGGTTGCGTCCGT [TEPP] | – | – | 110 | 85.6 | 27.6 |
| GCGCGTGCACGCGCTAACGGATTCCTTTTCCGT [TENN-DOX] | 865 | > 10000 | – | – | – |
| GCGCGTGCACGCGCTAACGGATTCCTTTTCCGT [TENN] | – | – | > 10000 | > 10000 | – |
